Measurements taken from US20250018052A1 (CHIA TAI TIANQING PHARMACEUTICAL GROUP, published 2025).

B1: Patritumab-eribulin-D2 (antibody, human IgG1, kappa, V domains shown)
VH: QVQLQQWGAGLLKPSETLSLTCAVYGGSFSGYYWSWIRQPPGKGLEWIGEINHSGSTNYNPSLKSRVTISVETSKNQFSLKLSSVTAADTAVYYCARDKWTWYFDLWGRGTLVTVSS
VL: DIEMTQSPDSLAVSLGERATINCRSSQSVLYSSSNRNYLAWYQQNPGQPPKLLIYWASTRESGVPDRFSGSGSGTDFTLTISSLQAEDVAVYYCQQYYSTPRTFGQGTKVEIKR
modifications: MC-GGFG-eribulin (compound III-1) conjugated to cysteine sulfhydryls freed by TCEP reduction of the antibody's disulfide bonds; positions not given; average DAR 2.6 per antibody
notes: also called patritumab-eribulin conjugate with a DAR of 2.6
B2: Patritumab-DDDXd-D8 (antibody, human IgG1, kappa, V domains shown)
VH: B1 VH
VL: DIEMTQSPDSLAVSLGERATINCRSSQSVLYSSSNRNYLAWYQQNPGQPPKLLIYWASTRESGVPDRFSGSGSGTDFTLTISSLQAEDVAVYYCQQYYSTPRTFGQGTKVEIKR
modifications: MC-GGFG-DDDXd (deuterated MC-GGFG-DXd) conjugated to cysteine sulfhydryls freed by TCEP reduction of the antibody's disulfide bonds; positions not given; average DAR 7.9 per antibody
notes: also called patritumab-DDDXd conjugate with a DAR of 7.9; patritumab-DDDX-D8
B3: Patritumab (antibody, human IgG1, kappa, V domains shown)
VH: B1 VH
VL: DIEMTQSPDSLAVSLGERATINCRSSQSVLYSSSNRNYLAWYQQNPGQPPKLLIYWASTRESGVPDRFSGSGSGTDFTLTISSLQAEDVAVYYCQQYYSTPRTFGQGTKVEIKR
notes: Naked antibody expressed in Expi-CHO cells and purified by Protein A; also called fully human anti-HER3 monoclonal antibody
B4: Patritumab-eribulin-D4 (antibody, human IgG1, kappa, V domains shown)
VH: B1 VH
VL: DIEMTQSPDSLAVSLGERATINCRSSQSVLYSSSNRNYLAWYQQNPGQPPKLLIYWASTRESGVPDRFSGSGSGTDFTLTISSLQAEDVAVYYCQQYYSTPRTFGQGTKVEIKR
modifications: MC-GGFG-eribulin (compound III-1) conjugated to cysteine sulfhydryls freed by TCEP reduction of the antibody's disulfide bonds; positions not given; average DAR 4.0-4.2 per antibody
notes: also called patritumab-eribulin conjugate with DAR of 4.0-4.2
B5: Patritumab-eribulin-D8 (antibody, human IgG1, kappa, V domains shown)
VH: B1 VH
VL: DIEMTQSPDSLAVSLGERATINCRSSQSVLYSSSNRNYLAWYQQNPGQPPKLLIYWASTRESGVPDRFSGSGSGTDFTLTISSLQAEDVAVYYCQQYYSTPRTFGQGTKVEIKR
modifications: MC-GGFG-eribulin (compound III-1) conjugated to cysteine sulfhydryls freed by TCEP reduction of the antibody's disulfide bonds; positions not given; average DAR 7.6 per antibody
notes: also called patritumab-eribulin conjugate with a DAR of 7.6

Assays:
[1] = biological target: T1, HER3 (human epidermal growth factor receptor 3) (human, UniProt P21860 20-1342); experiment: cell-based or functional assay
[2] = biological target: T1, HER3 (human epidermal growth factor …); experiment: FACS (MFI) on MCF-7 cells, high HER3 expression; anti-human IgG-Fc-PE secondary
Method: (§1) The cells were incubated at 4° C. for 60 min and centrifuged at 1000 rpm for 5 min. […] The cells were washed 3 times with pre-cooled PBS (pH 7.4) and resuspended in 100 μL of PBS (pH 7.4), and then the fluorescence signals were analyzed and detected using a flow cytometer (Sartorius, iQUE). […] Data were analyzed using GraphPad Prism5.

[3] = biological target: T1, HER3 (human epidermal growth factor …); experiment: FACS (MFI) on BT474 cells, high HER3 expression; anti-human IgG-Fc-PE secondary
Method: as §1

[4] = biological target: T1, HER3 (human epidermal growth factor …); experiment: FACS (MFI) on MDA-MB-468 cells, medium HER3 expression; anti-human IgG-Fc-PE secondary
Method: as §1

[5] = biological target: T1, HER3 (human epidermal growth factor …); experiment: FACS (MFI) on HCC1569 cells, high HER3 expression; anti-human IgG-Fc-PE secondary
Method: as §1

[6] = biological target: T1, HER3 (human epidermal growth factor …); experiment: FACS (MFI) on JIMT-1 cells, medium HER3 expression; anti-human IgG-Fc-PE secondary
Method: as §1

[7] = biological target: T1, HER3 (human epidermal growth factor …); experiment: FACS (MFI) on SW620 cells, low HER3 expression; anti-human IgG-Fc-PE secondary
Method: as §1

Binder | Endocytosis EC50 (nM), BT474 cells, pHrodo Green-labelled anti-human IgG Fc, FACS [1] [nM] | Endocytosis EC50 (nM), MCF-7 cells, pHrodo Green-labelled anti-human IgG Fc, FACS [1] [nM] | Endocytosis EC50 (nM), NCI-N87 cells, pHrodo Green-labelled anti-human IgG Fc, FACS [1] [nM] | EC50 [2] [nM] | EC50 [3] [nM] | EC50 [4] [nM] | EC50 [5] [nM] | EC50 [6] [nM] | EC50 [7] [nM]
B1 | 1.07 | 0.58 | 4.5 | 0.855 | 3.05 | 1.56 | 1.42 | 1.59 | 1.89
B2 | 0.859 | 0.869 | 56.8 | 0.77 | 2.68 | 1.7 | 1.16 | 1.3 | 1.37
B3 | 0.821 | 0.509 | – | 0.807 | 3.02 | 1.3 | – | 1.51 | 1.47
B4 | 0.962 | 0.797 | 4.72 | 0.932 | 2.78 | 1.67 | 1.49 | 1.04 | 1.28
B5 | 0.931 | 1.25 | 9.46 | 1.02 | 2.85 | 3.31 | 1.49 | 1.73 | 1.74
